Reference: US20250262210A1 (TRUSTEES OF COLUMBIA UNIVERSITY IN THE CITY OF NEW YORK, published 2025)

Target: T1, KIAA1468 (human, UniProt Q9P260 2-1216, limits assumed)
T1 sequence (looked up): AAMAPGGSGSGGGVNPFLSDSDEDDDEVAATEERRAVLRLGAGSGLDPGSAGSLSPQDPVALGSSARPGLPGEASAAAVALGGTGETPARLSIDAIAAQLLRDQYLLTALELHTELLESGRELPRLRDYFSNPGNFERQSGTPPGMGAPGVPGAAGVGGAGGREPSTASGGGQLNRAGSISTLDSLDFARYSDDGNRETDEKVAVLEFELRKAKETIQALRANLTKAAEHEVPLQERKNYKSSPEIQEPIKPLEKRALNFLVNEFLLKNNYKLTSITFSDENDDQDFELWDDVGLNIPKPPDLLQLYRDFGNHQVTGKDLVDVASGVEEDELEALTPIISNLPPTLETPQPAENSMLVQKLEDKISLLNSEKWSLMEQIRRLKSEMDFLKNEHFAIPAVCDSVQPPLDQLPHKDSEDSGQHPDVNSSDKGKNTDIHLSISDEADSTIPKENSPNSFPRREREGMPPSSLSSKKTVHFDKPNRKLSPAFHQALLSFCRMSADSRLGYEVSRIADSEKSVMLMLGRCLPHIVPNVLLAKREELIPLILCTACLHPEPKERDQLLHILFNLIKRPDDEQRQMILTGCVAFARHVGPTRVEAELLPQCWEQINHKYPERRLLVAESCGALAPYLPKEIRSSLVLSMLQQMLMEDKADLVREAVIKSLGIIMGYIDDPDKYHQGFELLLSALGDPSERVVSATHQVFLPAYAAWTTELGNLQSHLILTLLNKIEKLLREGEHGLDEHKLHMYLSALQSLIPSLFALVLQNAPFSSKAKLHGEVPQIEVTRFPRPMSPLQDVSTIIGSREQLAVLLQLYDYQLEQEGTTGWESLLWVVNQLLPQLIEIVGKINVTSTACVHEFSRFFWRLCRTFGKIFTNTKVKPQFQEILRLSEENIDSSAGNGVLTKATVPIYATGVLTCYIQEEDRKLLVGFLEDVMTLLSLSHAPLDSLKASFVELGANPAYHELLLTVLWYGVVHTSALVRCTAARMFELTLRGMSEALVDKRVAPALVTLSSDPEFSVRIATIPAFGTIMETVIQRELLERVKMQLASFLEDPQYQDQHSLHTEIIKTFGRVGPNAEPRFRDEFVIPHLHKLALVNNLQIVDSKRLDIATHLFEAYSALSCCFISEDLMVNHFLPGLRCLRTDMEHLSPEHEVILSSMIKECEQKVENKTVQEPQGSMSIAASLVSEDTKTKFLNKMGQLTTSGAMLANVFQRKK
Test: IP/MS, LZTR1 wild type-FLAG, U87
In short: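 Read-out: spectral counts from LC-MS/MS (Orbitrap Fusion) after MaxQuant identification. Variable modifications were Met oxidation, protein N-terminal acetylation and N/Q deamidation.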

binding result: binds
B1: LZTR1-FLAG (other, human, UniProt Q8N653 1-840, looked up)
chain: MAGPGSTGGQIGAAALAGGARSKVAPSVDFDHSCSDSVEYLTLNFGPFETVHRWRRLPPCDEFVGARRSKHTVVAYKDAIYVFGGDNGKTMLNDLLRFDVKDCSWCRAFTTGTPPAPRYHHSAVVYGSSMFVFGGYTGDIYSNSNLKNKNDLFEYKFATGQWTEWKIEGRLPVARSAHGATVYSDKLWIFAGYDGNARLNDMWTIGLQDRELTCWEEVAQSGEIPPSCCNFPVAVCRDKMFVFSGQSGAKITNNLFQFEFKDKTWTRIPTEHLLRGSPPPPQRRYGHTMVAFDRHLYVFGGAADNTLPNELHCYDVDFQTWEVVQPSSDSEVGGAEVPERACASEEVPTLTYEERVGFKKSRDVFGLDFGTTSAKQPTQPASELPSGRLFHAAAVISDAMYIFGGTVDNNIRSGEMYRFQFSCYPKCTLHEDYGRLWESRQFCDVEFVLGEKEECVQGHVAIVTARSRWLRRKITQARERLAQKLEQEAAPVPREAPGVAAGGARPPLLHVAIREAEARPFEVLMQFLYTDKIKYPRKGHVEDVLLIMDVYKLALSFQLCRLEQLCRQYIEASVDLQNVLVVCESAARLQLSQLKEHCLNFVVKESHFNQVIMMKEFERLSSPLIVEIVRRKQQPPPRTPLDQPVDIGTSLIQDMKAYLEGAGAEFCDITLLLDGHPRPAHKAILAARSSYFEAMFRSFMPEDGQVNISIGEMVPSRQAFESMLRYIYYGEVNMPPEDSLYLFAAPYYYGFYNNRLQAYCKQNLEMNVTVQNVLQILEAADKTQALDMKRHCLHIIVHQFTKVSKLPTLRSLSQQLLLDIIDSLASHISDKQCAELGADI
notes: Expressed in HEK 293T, HeLa or U87 cells; used as cell lysate; also called LZTR1 wild type-FLAG; LZTR1 WT; not shown: FLAG tag at the C-terminus
